{"source": "paper PMC12246617", "about": "“Cryo-EM structures reveal the PP2A–B55α and Eya3 interaction that can be disrupted by a peptide inhibitor” (The Journal of Biological Chemistry, 2025)", "molecular_target": "His-hB55 (human PP2A regulatory subunit B55α) (human) (UniProt P63151)", "sequence (P63151 whole entry)": "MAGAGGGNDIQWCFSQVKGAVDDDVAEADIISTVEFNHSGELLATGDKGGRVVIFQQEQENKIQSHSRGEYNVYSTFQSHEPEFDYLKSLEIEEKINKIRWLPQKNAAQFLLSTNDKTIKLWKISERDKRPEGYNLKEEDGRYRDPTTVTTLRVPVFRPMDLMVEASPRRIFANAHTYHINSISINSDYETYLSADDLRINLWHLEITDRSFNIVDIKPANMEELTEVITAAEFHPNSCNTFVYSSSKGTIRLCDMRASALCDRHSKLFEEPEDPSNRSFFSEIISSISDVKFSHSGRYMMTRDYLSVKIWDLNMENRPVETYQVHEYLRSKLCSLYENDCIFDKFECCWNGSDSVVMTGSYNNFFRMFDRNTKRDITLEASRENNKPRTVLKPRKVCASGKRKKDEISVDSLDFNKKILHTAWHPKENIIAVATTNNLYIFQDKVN", "test": "MST; His-B55 labelled with RED-Tris-NTA dye, added to serial dilutions of mEya3 (wild type or mutant) in PBS with 0.05% Tween-20; Monolith NT.115 Pico", "data": [{"substance": "mouse Eya3 (mEya3), wild type (from UniProt P97480 1-510) (natural protein)", "values": [{"measurement": "Kd", "value": 1040, "unit": "nM"}]}]}
